This is an account of results in patent US6346611.

The experiment has as its target human transforming growth factor β2 (TGFβ2) (human) (UniProt P61812). The experiment is described as follows: cell-based or functional assay.

Chain of human transforming growth factor β2 (TGFβ2) (human) (P61812 303-414 limits assumed): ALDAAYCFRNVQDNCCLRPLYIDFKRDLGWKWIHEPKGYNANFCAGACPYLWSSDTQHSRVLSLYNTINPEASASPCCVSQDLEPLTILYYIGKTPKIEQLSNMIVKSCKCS

With latency-associated protein (LAP), the Ki, reversal of TGFβ2-mediated inhibition of 3H-thymidine incorporation in mink lung epithelial cells stood at 500 pM.
